target: HLA-B*44:03; experiment: IEDB peptide-MHC binding, purified MHC/competitive/radioactivity; ≥ and ≤ were set here for values at or beyond the usual limits of such assays; settings: source organism: Bordetella pertussis

| Sequence | IC50 [µM] |
| --- | --- |
| GELMAAQVA | 0.572 |
| MESNKDIVI | 9.93 |

target: HLA-A*02:01; experiment: as above; settings: source organism: Bordetella pertussis

| Sequence | IC50 [µM] |
| --- | --- |
| ITSYVGFSV | 4.39 |
| IVVEAGELV | 9.86 |
| RLRKMLYLI | 14.9 |
| WVMTDNSNV | 29.2 |

target: HLA-B*35:01; experiment: as above; settings: source organism: Bordetella pertussis

| Sequence | IC50 [µM] |
| --- | --- |
| APNALAWAL | 6.26 |
| LFTQQGGAY | 69.9 |
| PDAHVPFCF | 69.9 |

target: HLA-B*53:01; experiment: as above; settings: source organism: Bordetella pertussis

| Sequence | IC50 [µM] |
| --- | --- |
| LAAGAGLTL | 58.7 |
| VPVSEHCTV | 69.9 |

target: HLA-B*07:02; experiment: as above; settings: source organism: Bordetella pertussis

| Sequence | IC50 [µM] |
| --- | --- |
| CFGKDLKRP | 69.6 |
| GIVIPPKAL | 69.6 |
| LAAGAGLTL | 7.38 |
| RPQITDAVT | 16.3 |
| RTHGVGASL | 1.58 |

From the Immune Epitope Database (IEDB)
